We go through one molecule from paper PMC6692130, “PHLPP1 counter-regulates STAT1-mediated inflammatory signaling” (eLife, 2019).

This assay has as its target T1, HA-tagged PHLPP1 N-terminal extension (PHLPP1 NTE), residues 1-512 (UniProt O60346 1-512).
T1 construct: PH domain Leucine-rich repeat Protein Phosphatase 1 (PHLPP1), N-terminal extension, residues 1-512 of the 1717-residue protein; also called HA-NTE; pCDNA3 HA PHLPP1 NTE-WT; source: HEK-293T, transfected, in lysate; not shown: HA, N-terminal, kept
T1 sequence (looked up): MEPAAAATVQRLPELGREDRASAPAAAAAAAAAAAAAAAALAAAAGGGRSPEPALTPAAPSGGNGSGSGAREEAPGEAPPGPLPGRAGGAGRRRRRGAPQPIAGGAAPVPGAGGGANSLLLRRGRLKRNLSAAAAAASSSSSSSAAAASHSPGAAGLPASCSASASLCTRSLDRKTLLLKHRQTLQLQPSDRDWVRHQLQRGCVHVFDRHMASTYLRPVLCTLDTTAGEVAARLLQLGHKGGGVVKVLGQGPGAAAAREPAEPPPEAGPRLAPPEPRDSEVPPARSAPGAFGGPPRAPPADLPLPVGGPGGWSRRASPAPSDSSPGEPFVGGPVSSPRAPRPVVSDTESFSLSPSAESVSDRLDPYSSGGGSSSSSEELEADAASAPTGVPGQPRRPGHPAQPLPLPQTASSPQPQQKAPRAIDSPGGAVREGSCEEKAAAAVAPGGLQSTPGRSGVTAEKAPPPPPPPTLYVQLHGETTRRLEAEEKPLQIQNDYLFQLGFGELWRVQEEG
The experiment in a line: co-IP; HEK-293T cells transfected with HA-tagged PHLPP1 constructs and GFP-STAT1; detergent-solubilized lysates incubated with anti-HA antibody at 4°C overnight, protein A/G agarose 1 hr at 4°C, washed three times in lysis buffer with 0.3 M NaCl and 0.1% Triton X 100; blot probed with GFP antibody; GFP-STAT1 IP divided by HA IP, normalized to HA-NTE IP, three independent experiments. Conditions: partners not purified.

B1: GFP-STAT1 (natural protein, UniProt P42224 1-750, looked up)
chain: MSQWYELQQLDSKFLEQVHQLYDDSFPMEIRQYLAQWLEKQDWEHAANDVSFATIRFHDLLSQLDDQYSRFSLENNFLLQHNIRKSKRNLQDNFQEDPIQMSMIIYSCLKEERKILENAQRFNQAQSGNIQSTVMLDKQKELDSKVRNVKDKVMCIEHEIKSLEDLQDEYDFKCKTLQNREHETNGVAKSDQKQEQLLLKKMYLMLDNKRKEVVHKIIELLNVTELTQNALINDELVEWKRRQQSACIGGPPNACLDQLQNWFTIVAESLQQVRQQLKKLEELEQKYTYEHDPITKNKQVLWDRTFSLFQQLIQSSFVVERQPCMPTHPQRPLVLKTGVQFTVKLRLLVKLQELNYNLKVKVLFDKDVNERNTVKGFRKFNILGTHTKVMNMEESTNGSLAAEFRHLQLKEQKNAGTRTNEGPLIVTEELHSLSFETQLCQPGLVIDLETTSLPVVVISNVSQLPSGWASILWYNMLVAEPRNLSFFLTPPCARWAQLSEVLSWQFSSVTKRGLNVDQLNMLGEKLLGPNASPDGLIPWTRFCKENINDKNFPFWLWIESILELIKKHLLPLWNDGCIMGFISKERERALLKDQQPGTFLLRFSESSREGAITFTWVERSQNGGEPDFHAVEPYTKKELSAVTFPDIIRNYKVMAAENIPENPLKYLYPNIDKDHAFGKYYSRPKEAPEPMELDGPKGTGYIKTELISVSEVHPSRLQTTDNLLPMSPEEFDEVSRIVGSVEFDSMMNTV
notes: STAT1, detected in the co-IP by its GFP tag; the methods give no source or limits for it; source: HEK-293T, transfected, in lysate
Take B1: the “fold binding against PHLPP1 lacking the NTE” value is roughly 26 fold and the “fold binding against full-length PHLPP1” value is roughly 5 fold.
